Legend:
[1] = target: T1, murine PTK7 (murine, UniProt Q8BKG3 23-1062); experiment: flow cytometry cell binding titration; 3T3L1 murine cells; unit from dose axis
T1 chain: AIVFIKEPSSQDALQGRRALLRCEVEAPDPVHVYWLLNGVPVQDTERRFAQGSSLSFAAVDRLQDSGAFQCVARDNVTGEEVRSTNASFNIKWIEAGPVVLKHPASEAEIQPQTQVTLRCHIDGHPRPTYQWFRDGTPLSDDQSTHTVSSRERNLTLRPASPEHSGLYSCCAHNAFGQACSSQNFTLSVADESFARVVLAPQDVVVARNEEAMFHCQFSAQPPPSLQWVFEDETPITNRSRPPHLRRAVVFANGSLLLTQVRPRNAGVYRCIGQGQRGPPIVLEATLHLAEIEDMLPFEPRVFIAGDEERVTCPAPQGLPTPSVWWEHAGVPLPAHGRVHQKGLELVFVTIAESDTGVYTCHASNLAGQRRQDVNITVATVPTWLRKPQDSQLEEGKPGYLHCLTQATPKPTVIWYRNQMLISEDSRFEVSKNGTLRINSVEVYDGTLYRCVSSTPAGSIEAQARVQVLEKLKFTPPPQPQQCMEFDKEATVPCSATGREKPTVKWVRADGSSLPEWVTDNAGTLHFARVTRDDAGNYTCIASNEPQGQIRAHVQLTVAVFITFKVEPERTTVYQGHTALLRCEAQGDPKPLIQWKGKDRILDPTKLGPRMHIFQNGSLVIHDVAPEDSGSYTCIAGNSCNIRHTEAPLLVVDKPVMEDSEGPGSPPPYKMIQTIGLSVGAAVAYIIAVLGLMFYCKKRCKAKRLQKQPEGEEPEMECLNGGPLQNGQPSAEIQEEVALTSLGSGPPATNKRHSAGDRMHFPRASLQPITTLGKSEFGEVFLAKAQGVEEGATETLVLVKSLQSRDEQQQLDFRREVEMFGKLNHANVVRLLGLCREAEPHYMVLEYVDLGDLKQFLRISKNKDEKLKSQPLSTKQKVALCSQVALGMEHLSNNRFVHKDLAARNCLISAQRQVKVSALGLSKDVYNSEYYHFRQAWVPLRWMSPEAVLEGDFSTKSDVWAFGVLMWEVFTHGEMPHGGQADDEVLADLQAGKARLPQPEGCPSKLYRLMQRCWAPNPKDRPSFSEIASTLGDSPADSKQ

[2] = target: T2, human protein tyrosine kinase 7 (PTK7) (human, UniProt Q13308 31-1070); experiment: flow cytometry cell binding titration; HCC70 human cells; unit from dose axis
T2 chain: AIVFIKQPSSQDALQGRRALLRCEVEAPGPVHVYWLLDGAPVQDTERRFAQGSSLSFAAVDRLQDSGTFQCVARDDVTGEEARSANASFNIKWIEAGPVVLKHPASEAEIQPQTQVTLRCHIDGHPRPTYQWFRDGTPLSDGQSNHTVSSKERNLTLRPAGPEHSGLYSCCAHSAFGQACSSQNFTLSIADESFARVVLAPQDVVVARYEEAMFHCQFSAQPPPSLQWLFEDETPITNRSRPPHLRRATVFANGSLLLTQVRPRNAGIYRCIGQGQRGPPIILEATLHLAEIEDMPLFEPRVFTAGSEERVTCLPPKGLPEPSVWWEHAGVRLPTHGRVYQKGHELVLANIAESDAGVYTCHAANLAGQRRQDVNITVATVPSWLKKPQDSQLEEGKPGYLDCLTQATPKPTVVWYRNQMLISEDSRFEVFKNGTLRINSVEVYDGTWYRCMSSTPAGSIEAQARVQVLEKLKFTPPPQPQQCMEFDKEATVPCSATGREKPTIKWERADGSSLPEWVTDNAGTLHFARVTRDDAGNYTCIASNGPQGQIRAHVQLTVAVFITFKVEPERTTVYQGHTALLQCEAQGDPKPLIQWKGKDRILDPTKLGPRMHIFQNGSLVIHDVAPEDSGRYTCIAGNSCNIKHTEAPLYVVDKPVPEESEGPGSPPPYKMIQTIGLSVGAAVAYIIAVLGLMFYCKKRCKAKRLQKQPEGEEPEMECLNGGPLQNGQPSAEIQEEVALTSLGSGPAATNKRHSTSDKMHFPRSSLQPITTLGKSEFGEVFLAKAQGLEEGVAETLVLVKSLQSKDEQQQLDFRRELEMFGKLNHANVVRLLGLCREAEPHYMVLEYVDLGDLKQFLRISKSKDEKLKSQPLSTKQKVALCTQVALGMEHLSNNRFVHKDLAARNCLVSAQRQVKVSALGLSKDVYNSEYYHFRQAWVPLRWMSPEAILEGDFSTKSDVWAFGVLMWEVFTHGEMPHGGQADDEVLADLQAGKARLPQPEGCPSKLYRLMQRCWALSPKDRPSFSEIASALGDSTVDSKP

Kd [1]: 0.662 nM
B1: CTX181 mAb (custom recombinant monoclonal anti-PTK7 antibody, Creative Biolabs) (antibody, V domains shown)
VH: QVQLVESGGGVVQPGRSLRLSCAASGFTFSSYGMHWVRQAPGKGLEWVAVIWDDGSNKYYVDSVKGRFTISRDNSKNTLYLQMNSLRAEDTAVYYCARDDYYGSGSFNSYYGTDVWGQGTTVTVSS
VL: EIVLTQSPATLSLSPGERATLSCRASQSVSIYLAWYQQKPGQAPRLLIYDASNRATGIPARFSGSGSGTDFTLTISSLEPEDFAVYYCQQRSNWPPFTFGPGTKVDIKR
Kd [2]: 1.53 nM

— patent publication US20210290678A1 (published 2021)
